Laboratory results: patent US20120316071A1 (published 2012)
Values belong to the binder of their own block, whether it stands above or below them.

Key:
[1] = target: T1, rHuman CD44/Fc Chimera, CF (R&D Systems Cat#3660-CD) (human, UniProt P16070 21-220); assay: Multispot ECL (MSD), antigen spotted on plate, Fab 60 nM; blank spot 1433
T1 construct: Bought recombinant protein; Fc part of the bought chimera not given

[2] = target: T2, rHuman IGF-1 sR, (IGF-1 sR), CF (R&D Systems Cat#391-GR) (human, UniProt P08069 31-932); assay: as above
T2 construct: Bought soluble receptor; also called insulin-like growth factor-1 soluble receptor

[3] = target: T3, rHuman ErbB2/Fc Chimera, CF (R&D Systems Cat#1129-ER) (human, UniProt P04626 23-652); assay: as above
T3 construct: Bought recombinant protein; also called human epidermal growth factor 2 receptor; Fc part of the bought chimera not given

[4] = target: T4, Recombinant Human DLL4 (R&D Systems Cat#1506-D4/CF) (human, UniProt Q9NR61 27-524); assay: as above
T4 construct: it includes the signal peptide (amino acids 1-25), the transmembrane region and the cytoplasmic domain; also called delta-like protein 4; rHuman DLL4

[5] = target: T1, rHuman CD44/Fc Chimera, CF (R&D Systems …); assay: Multispot ECL (MSD), antigen spotted on plate, Fab 0.9375 nM; blank spot 153
[6] = target: T2, rHuman IGF-1 sR, (IGF-1 sR), CF (R&D …); assay: as above
[7] = target: T3, rHuman ErbB2/Fc Chimera, CF (R&D …); assay: as above
[8] = target: T4, Recombinant Human DLL4 (R&D Systems …); assay: as above
[9] = target: T1, rHuman CD44/Fc Chimera, CF (R&D Systems …); assay: Multispot ECL (MSD), antigen spotted on plate, Fab 15 nM; blank spot 536
[10] = target: T2, rHuman IGF-1 sR, (IGF-1 sR), CF (R&D …); assay: as above
[11] = target: T3, rHuman ErbB2/Fc Chimera, CF (R&D …); assay: as above
[12] = target: T4, Recombinant Human DLL4 (R&D Systems …); assay: as above
[13] = target: T1, rHuman CD44/Fc Chimera, CF (R&D Systems …); assay: Multispot ECL (MSD), antigen spotted on plate, Fab 3.75 nM; blank spot 191
[14] = target: T2, rHuman IGF-1 sR, (IGF-1 sR), CF (R&D …); assay: as above
[15] = target: T3, rHuman ErbB2/Fc Chimera, CF (R&D …); assay: as above
[16] = target: T4, Recombinant Human DLL4 (R&D Systems …); assay: as above
[17] = target: T5, rHuman Notch-1/Fc Chimera, CF (R&D Systems Cat#3647-TK) (human, UniProt P46531 19-526); assay: MSD Multispot ECL, antigen spotted on plate, Fab 57.5 nM; blank spot 954
T5 construct: Bought reagent; Fc part of the bought chimera not given

[18] = target: T6, rHuman Erythropoietin R/Fc Chimera, CF (R&D Systems Cat#963-ER) (human, UniProt P19235 25-250); assay: as above
T6 construct: Bought reagent; also called EPO R/Fc; EPO R; Fc part of the bought chimera not given
T6 sequence (looked up): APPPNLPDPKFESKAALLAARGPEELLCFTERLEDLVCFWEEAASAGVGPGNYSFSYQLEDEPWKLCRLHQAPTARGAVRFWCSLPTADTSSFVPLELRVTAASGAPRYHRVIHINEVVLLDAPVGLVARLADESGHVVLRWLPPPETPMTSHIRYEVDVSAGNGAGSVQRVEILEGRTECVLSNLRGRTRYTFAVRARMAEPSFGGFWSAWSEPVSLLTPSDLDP

[19] = target: T7, rHuman IGF-1 sR, (IGF-1 sR), CF (R&D Systems Cat#391-GR) (human, UniProt P08069 31-932); assay: as above
T7 construct: Bought soluble receptor; also called insulin-like growth factor-1 soluble receptor

[20] = target: T8, Recombinant Human DLL4 (R&D Systems Cat#1506-D4/CF) (human, UniProt Q9NR61 27-529); assay: as above
T8 construct: Bought recombinant protein; also called rHuman DLL4; delta-like protein 4

[21] = target: T5, rHuman Notch-1/Fc Chimera, CF (R&D …); assay: MSD Multispot ECL, antigen spotted on plate, Fab 920 nM; blank spot 4082
[22] = target: T6, rHuman Erythropoietin R/Fc Chimera, CF …; assay: as above
[23] = target: T7, rHuman IGF-1 sR, (IGF-1 sR), CF (R&D …); assay: as above
[24] = target: T8, Recombinant Human DLL4 (R&D Systems …); assay: as above
[25] = target: T5, rHuman Notch-1/Fc Chimera, CF (R&D …); assay: MSD Multispot ECL, antigen spotted on plate, Fab 14.375 nM; blank spot 738
[26] = target: T6, rHuman Erythropoietin R/Fc Chimera, CF …; assay: as above
[27] = target: T7, rHuman IGF-1 sR, (IGF-1 sR), CF (R&D …); assay: as above
[28] = target: T8, Recombinant Human DLL4 (R&D Systems …); assay: as above
[29] = target: T5, rHuman Notch-1/Fc Chimera, CF (R&D …); assay: MSD Multispot ECL, antigen spotted on plate, Fab 230 nM; blank spot 1656
[30] = target: T6, rHuman Erythropoietin R/Fc Chimera, CF …; assay: as above
[31] = target: T7, rHuman IGF-1 sR, (IGF-1 sR), CF (R&D …); assay: as above
[32] = target: T8, Recombinant Human DLL4 (R&D Systems …); assay: as above

ECL signal [1]: 2360
ECL signal [2]: 2670
ECL signal [3]: 2160
ECL signal [4]: 17300
ECL signal [5]: 251
ECL signal [6]: 204
ECL signal [7]: 268
ECL signal [8]: 453
ECL signal [9]: 748
ECL signal [10]: 859
ECL signal [11]: 740
ECL signal [12]: 7730
ECL signal [13]: 307
ECL signal [14]: 314
ECL signal [15]: 291
ECL signal [16]: 1570
B1: Fab VH1-3_IGHD4-23*01_IGHJ4*01 & L12_IGKJ1*01 (Fab, V domains shown)
VH: QVQLVQSGAEVKKPGASVKVSCKASGYTFTSYAMHWVRQAPGQRLEWMGWSNAGNGNTKYSQEFQGRVTITRDTSASTAYMELSSLRSEDMAVYYCARDDYGGNSDYFDYWGQGTLVTVSS
VL: not shown

ECL signal [17]: 5890
ECL signal [18]: 4040
ECL signal [19]: 2830
ECL signal [20]: 144000
ECL signal [21]: 20100
ECL signal [22]: 16400
ECL signal [23]: 10200
ECL signal [24]: 73600
ECL signal [25]: 4210
ECL signal [26]: 2720
ECL signal [27]: 1750
ECL signal [28]: 125000
ECL signal [29]: 9740
ECL signal [30]: 6950
ECL signal [31]: 4760
ECL signal [32]: 119000
B2: Fab VH1-46_IGHD3-10*01_IGHJ4*01 & L12_IGKJ1*01 (Fab, V domains shown)
VH: QVQLVQSGAEVKKPGASVKVSCKASGYTFTSYYMHWVRQAPGQGLEWMGIINPSGGSTSYAQKFQGRVTMTRDTSTSTVYMELSSLRSEDTAVYYCAREYYYGSGSYYNDYFDYWGQGTLVTVSS
VL: not shown
notes: Tested as a Fab made in E. coli; VH was cloned into Plasmid A (CH1 with His6 and Flag tags) and the kappa VL into Plasmid C (kappa CL)
